The record followed here is the supplement of paper PMC10567573.

± gives the standard deviation.

This data set can be described thus: protein stability index of a GFP-peptide fusion (GPS, HEK-293T) (PSI 1-6); higher = more stable. Particulars: c terminus: a fixed tail appended.
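Further: 24-mer peptide tiles fused after GFP, lentivirally expressed, FACS-sorted into six equal bins by GFP/DsRed ratio, decoded by Illumina sequencing, PSI is the read-weighted mean bin number.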

Take EEKPQENKTWREQYLRLPDAPEQR [ELOA2]: the protein stability index by setting is: (treatment: DMSO) 5.18 ± 0.28; (treatment: MLN4924 1 uM, 8 h) 4.88 ± 0.11.
On the same counts, the results for EEMAVVPQGLFRGGKSGELEQEEE [CHGA] are 5.63 ± 0.27 and 5.62 ± 0.18.
On the same counts, the results for EEPQTVPEARSRDATPPVSPINME [JUNB] are 5.38 ± 0.29 and 5.46 ± 0.27.
On the same counts, the results for EEVTRLGAQVKELEEKCQQPASEL [TRIM15] are 5.5 ± 0.12 and 5.52 ± 0.13.
For EEWNALQSVENCPEDLAQLEELID [RPAIN], the protein stability index came to 5.14 ± 0.29 (treatment: DMSO) and 5.29 ± 0.26 (treatment: MLN4924 1 uM, 8 h).
For EFAEMVEREEEDDALDSEGRDSEG [KCNG1] the same measures were 5.68 ± 0.22 and 5.62 ± 0.29.
EFAGSSPQSSKSTVVKSLIDNSSE [FAN1]: the protein stability index reads like this: (treatment: DMSO) 5.08 ± 0.27; (treatment: MLN4924 1 uM, 8 h) 5.28 ± 0.12.
Consider EFLLDLGHHERSIMTDLYYLSQTD [FUT8], for which the protein stability index turned out to be 2.2 ± 0.36 (treatment: DMSO) and 2.47 ± 0.16 (treatment: MLN4924 1 uM, 8 h).
For EGELGEYRQKLLMFLEISSYYDPG [VPS39] the same measures were 2.19 ± 0.22 and 2.18 ± 0.28.
On the same counts, the results for EGSIWRGAQMEKEWARALETRDWG [ZSWIM9] are 3.37 ± 0.3 and 3.42 ± 0.21.
On the same counts, the results for EGYVWRGSQLEDQALRGLEGYTWR [ZSWIM9] are 2.7 ± 0.22 and 2.67 ± 0.18.
On to EHQRSHTGERPHQCIECGKSFNRH [ZSCAN9], for which the protein stability index turned out to be 3.88 ± 0.41 (treatment: DMSO) and 4.17 ± 0.41 (treatment: MLN4924 1 uM, 8 h).
On the same counts, the results for EIRRKEKEAVLAMEKKSKPKNSVW [RIT1] are 4.12 ± 0.17 and 4.29 ± 0.38.
On the same counts, the results for EKALKKNVKLQELINHKKAEDTEK [CEP70] are 4.85 ± 0.34 and 5.07 ± 0.2.
With EKALQVLVDQSKKANSPLKGHERT [VPS39], the protein stability index worked out at 4.06 ± 0.21 (treatment: DMSO) and 4.48 ± 0.26 (treatment: MLN4924 1 uM, 8 h).
For EKESTELRAEEIETRVTSGSMEAL [PPFIA4] the same measures were 5.53 ± 0.17 and 5.45 ± 0.27.
For EKFDIVKKWGINTYKCTKQLLSER [ARFIP2] the same measures were 2.78 ± 0.37 and 2.79 ± 0.19.
On the same counts, the results for EKNIILEEKIQVLQQQNEDLKARI [MTUS2] are 4.03 ± 0.24 and 4.04 ± 0.23.
On to EKNNHRAKDLRAPPEQGKIFIARR [SOAT1], for which the protein stability index stood at 3.16 ± 0.33 (treatment: DMSO) and 3.27 ± 0.5 (treatment: MLN4924 1 uM, 8 h).
On the same counts, the results for EKTNGATPLLMAARYGHLDMVEFL [FEM1C] are 2.91 ± 0.2 and 3.05 ± 0.37.
Regarding ELAALLIERGASLEEVNDEGYTPL [ANKRD17], the protein stability index runs as follows: (treatment: DMSO) 2.34 ± 0.29; (treatment: MLN4924 1 uM, 8 h) 2.78 ± 0.53.
For ELSKDAQASAAPAAPLPERNSLSA [SLC29A1] the same measures were 5.15 ± 0.12 and 5.05 ± 0.27.
For EMDWAQMACHRCLVYLGDLSRYQN [SMG5] the same measures were 2.36 ± 0.4 and 2.17 ± 0.18.
On the same counts, the results for EMLSASRYPTISMVKPLLHMLLNT [ZBED1] are 2.6 ± 0.81 and 3.02 ± 0.79.
Regarding ENAPIGTLLLRLNATDPDEGTNGQ [PCDHGC5], the protein stability index reads like this: (treatment: DMSO) 4.95 ± 0.15; (treatment: MLN4924 1 uM, 8 h) 4.92 ± 0.18.
With ENIQDITVNIHRLHVKRSMGWKKA [ZMYND11], the protein stability index reads like this: (treatment: DMSO) 2.98 ± 0.26; (treatment: MLN4924 1 uM, 8 h) 3.22 ± 0.49.
Turning to ENKPSTCSFSIERILGLDQKKDCV [HESX1], the protein stability index was 3.12 ± 0.49 (treatment: DMSO) and 3.42 ± 0.47 (treatment: MLN4924 1 uM, 8 h).
On the same counts, the results for ENRELYIKTTLRELLVYIVFLVDI [PKD2L1] are 2.58 ± 0.87 and 2.57 ± 0.82.
In the case of ENSGILQGKLIKRQRLAKNDRGDH [EFHC1], the protein stability index runs as follows: (treatment: DMSO) 3.85 ± 0.32; (treatment: MLN4924 1 uM, 8 h) 4.37 ± 0.11.
On the same counts, the results for ENYETVISLALFVLPKPKVISCLE [ZNF75A] are 3.11 ± 0.47 and 3.46 ± 0.28.
For EPVLTQTSEQAPSSAPRDVQARML [PTPRD] the same measures were 5.13 ± 0.26 and 5.31 ± 0.26.
On the same counts, the results for EQGEPLWTLEDEIHSPAHPEIEKA [ZNF649] are 5.44 ± 0.44 and 5.57 ± 0.22.
Turning to EQPITDFCSVIRINSTAPFEEQEN [ZNF277], the protein stability index reads like this: (treatment: DMSO) 4.4 ± 0.23; (treatment: MLN4924 1 uM, 8 h) 4.46 ± 0.3.
For EQSLLSRWNPWSTEVPYATFTEHP [TPRG1] the same measures were 3.13 ± 0.22 and 3.06 ± 0.16.
On the same counts, the results for ERDFPCPVCRKTSRYRSLRPNRQL [TRIM39] are 2.93 ± 0.46 and 3.23 ± 0.45.
On the same counts, the results for ERIVVAGNNEDVSFSRPADLDLIQ [MFF] are 4.96 ± 0.075 and 4.21 ± 0.32.
ESKKNRVEINDLDPEVFKEMMRFI [SPOPL] gave a protein stability index (treatment: DMSO) of 1.55 ± 0.31.
Consider ESLIVFMEQVHRGIKGLVRDSHGK [CPXM2], for which the protein stability index (treatment: DMSO) was determined as 2.26 ± 0.58 and the protein stability index (treatment: MLN4924 1 uM, 8 h) worked out at 2.13 ± 0.76.
On the same counts, the results for ESMYGDFQEAMTHLQHKLICTRKP [TENT5D] are 3.54 ± 0.17 and 3.58 ± 0.38.
For ESPRKRKKATEAIDSLRKSKRLRN [FBXO28] the same measures were 5.3 ± 0.23 and 5.33 ± 0.14.
For ETAGQKPLSVHRPPTSGCLGPVPR [TSPAN10] the same measures were 4.25 ± 0.46 and 4.22 ± 0.19.
For ETEDVDYGETDFHKQDGKAGLFSQ [TMEM40], the protein stability index (treatment: DMSO) is 5.3 ± 0.27 and the protein stability index (treatment: MLN4924 1 uM, 8 h) was determined as 5.36 ± 0.2.
For EVAGGGTPLLIAARYGHLDVVEYL [FEM1A] the same measures were 2.46 ± 0.19 and 2.32 ± 0.34.
Take EVELAYQEAMFNMATLNRTAAGLM [SEPHS2]: the protein stability index by setting is: (treatment: DMSO) 2.42 ± 0.46; (treatment: MLN4924 1 uM, 8 h) 2.56 ± 0.68.
Regarding EVGDPAPLGAGNLGPELIKESNAN [DPCD], the protein stability index is, setting by setting: (treatment: DMSO) 5.31 ± 0.31; (treatment: MLN4924 1 uM, 8 h) 5.28 ± 0.1.
As for EYSKFCRMSYQDPAQLSCLPYLEH [NFE2L1], the protein stability index runs as follows: (treatment: DMSO) 2.52 ± 0.56; (treatment: MLN4924 1 uM, 8 h) 1.89 ± 0.42.
On the same counts, the results for FATQTEELNKQVVSSSEQLQSCQA [KRT34] are 4.87 ± 0.28 and 4.86 ± 0.33.
Regarding FCGAPPVTPIIVLSIINFFERLCL [PHTF1], the protein stability index by setting is: (treatment: DMSO) 2.87 ± 0.47; (treatment: MLN4924 1 uM, 8 h) 2.5 ± 0.46.
For FDPAEKYKMDHRRRGIALIFNHER [CASP6] the same measures were 2.89 ± 0.2 and 3.19 ± 0.39.
As for FEHEMEESKKNRVEINDLDPEVFK [SPOPL], the protein stability index is, setting by setting: (treatment: DMSO) 4.99 ± 0.39; (treatment: MLN4924 1 uM, 8 h) 5.02 ± 0.32.
For the sequence FEPHSGEDYSRDEDHIAHIIELLG [SRPK2], the protein stability index stood at 3.3 ± 0.19 (treatment: DMSO) and 3.63 ± 0.18 (treatment: MLN4924 1 uM, 8 h).
For FGAVNLSSPSNMLPVRPQTNALIG [CLINT1] the same measures were 3.23 ± 0.12 and 3.26 ± 0.41.
For FGHLSVFSTSKWNHLLHHFVIGHL [FADS1] the same measures were 2.58 ± 0.41 and 2.76 ± 0.78.
For FGVKYNPYTRSIQILKDTKSITSA [TPH1] the same measures were 2.43 ± 0.63 and 2.46 ± 0.11.
With FHRLDEPPHICWDETHFGKMGSYY [POMT2], the protein stability index stood at 2.42 ± 0.51 (treatment: DMSO) and 2.36 ± 0.4 (treatment: MLN4924 1 uM, 8 h).
Take FIYTAKLSLNMDNLQDTLEAASFL [KLHL13]: the protein stability index amounted to 2.65 ± 0.54 (treatment: DMSO) and 2.96 ± 0.48 (treatment: MLN4924 1 uM, 8 h).
For FLDKSGSHGYDMSTFIRRYSRYLN [SNAP91] the same measures were 2.38 ± 0.4 and 2.64 ± 0.49.
On to FLDLERPPTTPQNEEIRAVGRLKR [MFF], for which the protein stability index (treatment: MLN4924 1 uM, 8 h) turned out to be 4.07 ± 0.3.
With FLGSSFSPVRCGGPGDASPRGCGA [WEE1], the protein stability index is, setting by setting: (treatment: DMSO) 2.27 ± 0.34; (treatment: MLN4924 1 uM, 8 h) 2.61 ± 0.48.
As to FLLVQRFGELMRKLWNPRNFKAHV [USP39], the protein stability index is, setting by setting: (treatment: DMSO) 2.47 ± 0.51; (treatment: MLN4924 1 uM, 8 h) 2.54 ± 0.7.
On the same counts, the results for FLVANFSQIETLTSVFQKKLCTAH [MATN2] are 2.6 ± 0.56 and 2.52 ± 0.49.
On the same counts, the results for FNDVAKFLKQGDSADETTAHKTEE [CMTM3] are 4.97 ± 0.23 and 5.13 ± 0.12.
As to FNIGLPDNIVNCNEFLCTLQKKLD [ZNF277], the protein stability index is, setting by setting: (treatment: DMSO) 2.48 ± 0.32; (treatment: MLN4924 1 uM, 8 h) 2.51 ± 0.35.
For FRIYKSVIQAVQKSEEGHPFKAYL [RTN3] the same measures were 2.4 ± 0.23 and 2.29 ± 0.21.
For FRSGALDLDSCSRDGALLGCSLTA [MYORG] the same measures were 2.58 ± 0.12 and 2.34 ± 0.32.
For FSDLQVYSYRRLGEEALSLQALDP [SLC22A15] the same measures were 2.73 ± 0.34 and 2.84 ± 0.31.
The sequence FSKNLKLGIHEDSTNRRRLSELLR [HSP90AB1] returned a protein stability index (treatment: MLN4924 1 uM, 8 h) of 2.43 ± 0.39.
For the sequence FSRVCRLHRGQLSLFCLEDKELLC [TRIM35], the protein stability index turned out to be 2.22 ± 0.56 (treatment: DMSO) and 2.19 ± 0.18 (treatment: MLN4924 1 uM, 8 h).
On the same counts, the results for FTGVITQGRNSLWLSDWVTSYKVM [CPXM2] are 3.21 ± 0.45 and 2.94 ± 0.84.
On the same counts, the results for FTSGTGHFTAMVWKNTKKMGVGKA [GLIPR2] are 2.66 ± 0.29 and 2.74 ± 0.2.
For FVFFVLLNMFLAIINDTYSEVKEE [PKD2L1] the same measures were 3.36 ± 0.23 and 3.12 ± 0.26.
With FYHDHTKIIICSQNEEYLLTYINE [PLK2], the protein stability index reads like this: (treatment: DMSO) 2.57 ± 0.59; (treatment: MLN4924 1 uM, 8 h) 2.58 ± 0.54.
Turning to GAARSFQEVTEPAVVAVDRQAIFP [PXN], the protein stability index runs as follows: (treatment: DMSO) 4.1 ± 0.26; (treatment: MLN4924 1 uM, 8 h) 4.04 ± 0.59.
